Tested on: CC(=O)N[C@H]1[C@H](Oc2ccc([N+](=O)[O-])cc2)O[C@H](CO)[C@@H](O)[C@@H]1O
Assay: purified protein
Conditions: KPO4 buffer 200 mM, pH 8.0, 37 °C (standard assay)

Substance: NagZ (Neisseria gonorrhoeae FA 1090)
- Km: 3.2 mM
